# The supplement of paper PMC10201428
# ± gives the standard deviation of the averaged measurements.
# Tests used:
# [1] = tested on: VchCAST RNA-guided transposition machinery (E. coli BL21(DE3) host, lacZ target); assay: relative integration efficiency (T-RL orientation) vs wild-type transposon end (log2 (normalized fold change)); transposon end mutated: right end (5 bp flank + 75 bp right end); higher = more efficient transposition
# Outline: (§1)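 Pools of 1549 left-end or 1849 right-end barcoded transposon variants were cloned into a pUC57 mini-transposon donor and co-transformed into E. coli BL21(DE3) with a T7-driven effector plasmid carrying a CRISPR array, tniQ-cas8-cas7-cas6 and tnsA-tnsB-tnsC. Plating used 0.1 mM IPTG at 37°C for 18 h, and input plasmids and genomic integration junctions were PCR-amplified for Illumina sequencing, with two biological output replicates and four reference barcodes. Relative integration efficiency is the log-transformed fold change of output over input barcode abundance, normalised to the reference barcodes.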
# [2] = tested on: VchCAST RNA-guided transposition machinery (E. coli BL21(DE3) host, lacZ target); assay: relative integration efficiency (T-LR orientation) vs wild-type transposon end (log2 (normalized fold change)); transposon end mutated: right end (5 bp flank + 75 bp right end); higher = more efficient transposition
# Outline: as §1
Sequence,relative integration efficiency (log2) [1],relative integration efficiency (log2) [2]
ACATTTGTTGATACAACCATAAAATGATCACCCATAAATTGATAATTATCACACCCATAAATTGATATTGCCTCTGATCATAGTCAGACCAACATTGCTACGACCCGTATTCGCACCGACACTGACT,-4.08 ± 0.34,-0.722 ± 0.27
ACATTTGTTGATACAACCATAAAATGATCATTACACCCATAAATTGATAATTATCACACCCCATTTAACTATAACGCTCTGATCATAGTCAGACCAACATTGCTACGACCCGTATTCGCACCGACAC,-2.04 ± 0.29,1.74 ± 0.078
ACATTTGTTGATACAACCATAAAATGATCATTACACCCATAAATTGATAATTATCCCACCCAATTTAACTATAACGCTCTGATCATAGTCAGACCAACATTGCTACGACCCGTATTCGCACCGACAC,-1.52 ± 0.18,2.27 ± 0.065
ACATTTGTTGATACAACCATAAAATGATCATTACACCCATAAATTGATAATTATCCCACCCCATTTAACTATAACGCTCTGATCATAGTCAGACCAACATTGCTACGACCCGTATTCGCACCGACAC,-1.84 ± 0.31,1.87 ± 0.062
ACATTTGTTGATACAACCATAAAATGATCATTACACCCATAAATTGATCATTATCACACCCATAAATTGATCTTGCCTCTGATCATAGTCAGACCAACATTGCTACGACCCGTATTCGCACCGACAC,-1.214 ± 0.0037,-0.7415 ± 0.00084
ACATTTGTTGATACAACCATAAAATGATCATTACACCCATCAATTGATAATTATCACACCCAATTTAACTATAACGCTCTGATCATAGTCAGACCAACATTGCTACGACCCGTATTCGCACCGACAC,-2.98 ± 0.5,0.697 ± 0.18
ACATTTGTTGATACAACCATAAAATGATCATTACACCCATCAATTGATAATTATCACACCCCATTTAACTATAACGCTCTGATCATAGTCAGACCAACATTGCTACGACCCGTATTCGCACCGACAC,-2.76 ± 0.2,0.914 ± 0.34
ACATTTGTTGATACAACCATAAAATGATCATTACACCCATCAATTGATAATTATCCCACCCAATTTAACTATAACGCTCTGATCATAGTCAGACCAACATTGCTACGACCCGTATTCGCACCGACAC,-2.65 ± 0.42,0.874 ± 0.13
ACATTTGTTGATACAACCATAAAATGATCATTACACCCATCAATTGATAATTATCCCACCCCATTTAACTATAACGCTCTGATCATAGTCAGACCAACATTGCTACGACCCGTATTCGCACCGACAC,-2.65 ± 0.32,1.04 ± 0.071
ACATTTGTTGATACAACCATAAAATGATCATTACCCCCATAAATTGATAATTATCACACCCAATTTAACTATAACGCTCTGATCATAGTCAGACCAACATTGCTACGACCCGTATTCGCACCGACAC,-1.95 ± 0.25,1.59 ± 0.045
ACATTTGTTGATACAACCATAAAATGATCATTACCCCCATAAATTGATAATTATCACACCCCATTTAACTATAACGCTCTGATCATAGTCAGACCAACATTGCTACGACCCGTATTCGCACCGACAC,-1.23 ± 0.22,2.423 ± 0.013
ACATTTGTTGATACAACCATAAAATGATCATTACCCCCATAAATTGATAATTATCCCACCCAATTTAACTATAACGCTCTGATCATAGTCAGACCAACATTGCTACGACCCGTATTCGCACCGACAC,-2.11 ± 0.51,1.58 ± 0.2
ACATTTGTTGATACAACCATAAAATGATCATTACCCCCATAAATTGATAATTATCCCACCCCATTTAACTATAACGCTCTGATCATAGTCAGACCAACATTGCTACGACCCGTATTCGCACCGACAC,-1.91 ± 0.36,1.86 ± 0.02
ACATTTGTTGATACAACCATAAAATGATCATTACCCCCATCAATTGATAATTATCACACCCAATTTAACTATAACGCTCTGATCATAGTCAGACCAACATTGCTACGACCCGTATTCGCACCGACAC,-3.35 ± 0.24,-0.291 ± 0.3
ACATTTGTTGATACAACCATAAAATGATCATTACCCCCATCAATTGATAATTATCACACCCCATTTAACTATAACGCTCTGATCATAGTCAGACCAACATTGCTACGACCCGTATTCGCACCGACAC,-3.74 ± 0.21,-0.533 ± 0.18
ACATTTGTTGATACAACCATAAAATGATCATTACCCCCATCAATTGATAATTATCCCACCCAATTTAACTATAACGCTCTGATCATAGTCAGACCAACATTGCTACGACCCGTATTCGCACCGACAC,-3.71 ± 0.29,0.227 ± 0.14
ACATTTGTTGATACAACCATAAAATGATCATTACCCCCATCAATTGATAATTATCCCACCCCATTTAACTATAACGCTCTGATCATAGTCAGACCAACATTGCTACGACCCGTATTCGCACCGACAC,-3.97 ± 0.23,-0.338 ± 0.22
ACATTTGTTGATACAACCATAAAATGATCATTCACCCATAAATTGATAATTATCACACCCACATTTAACTATAACGCTCTGATCATAGTCAGACCAACATTGCTACGACCCGTATTCGCACCGACAC,-3.25 ± 0.26,0.654 ± 0.11

Sequence,relative integration efficiency (log2) [1],relative integration efficiency (log2) [2]
ACATTTGTTGATACAACCATAAAATGATCATTCACCCCTAAATTGATAATTATCACACCCACATTTAACTATAACGCTCTGATCATAGTCAGACCAACATTGCTACGACCCGTATTCGCACCGACAC,-4.31 ± 0.082,-0.712 ± 0.069
ACATTTGTTGATACAACCATAAAATGATCCGGACACCCATAAATTGATAATTATCACACCCATAAATTGATATTGCCTCTGATCATAGTCAGACCAACATTGCTACGACCCGTATTCGCACCGACAC,-1.23 ± 0.15,-0.898 ± 0.013
ACATTTGTTGATACAACCATAAAATGATCCGGCACAAACGCCCGGTCGCCGGCGACACAAACGCCCGGTCGCGGTAAGAGGATCATAGTCAGACCAACATTGCTACGACCCGTATTCGCACCGACAC,-2.68 ± 0.12,0.37 ± 0.064
ACATTTGTTGATACAACCATAAAATGATCCGGCCACCCATAAATTGATCCGGCTCACACCCATAAATTGATCGGTACTCTGATCATAGTCAGACCAACATTGCTACGACCCGTATTCGCACCGACAC,-2.73 ± 0.41,-0.827 ± 0.14
ACATTTGTTGATACAACCATAAAATGATCCTTACACCCATAAATTGATAATTATCACACCCATAAATTGATATTGCCTCTGATCATAGTCAGACCAACATTGCTACGACCCGTATTCGCACCGACAC,-1.03 ± 0.14,-0.545 ± 0.46
ACATTTGTTGATACAACCATAAAATGATTATTACACCCATAAATTGATAATAATGACACCGAATTTAACTATAACGCTCTGATCATAGTCAGACCAACATTGCTACGACCCGTATTCGCACCGACAC,-0.616 ± 0.36,2.95 ± 0.061
ACATTTGTTGATACAACCATAAAATGATTATTACACCCATAAATTGATAATGATGACACCGAATTTAACTATAACGCTCTGATCATAGTCAGACCAACATTGCTACGACCCGTATTCGCACCGACAC,-1.31 ± 0.35,2.38 ± 0.12
ACATTTGTTGATACAACCATAAAATGATTATTACACCCATAAATTGATAATTGTGACACCGAATTTAACTATAACGCTCTGATCATAGTCAGACCAACATTGCTACGACCCGTATTCGCACCGACAC,-1.18 ± 0.23,2.3 ± 0.095
ACATTTGTTGATACAACCATAAAATGATTATTACACCCATAAATTGATTATTATCACACCCATAAATTGATTTTGCCTCTGATCATAGTCAGACCAACATTGCTACGACCCGTATTCGCACCGACAC,-0.91 ± 0.14,0.0804 ± 0.34
ACATTTGTTGATACAACCATAAAATGATTATTACACCCATTAATTGATAATTATCACACCCAATTTAACTATAACGCTCTGATCATAGTCAGACCAACATTGCTACGACCCGTATTCGCACCGACAC,-1.4 ± 0.34,2.31 ± 0.036
ACATTTGTTGATACAACCATAAAATGATTTAAACACCCATAAATTGATAATTATCACACCCATAAATTGATATTGCCTCTGATCATAGTCAGACCAACATTGCTACGACCCGTATTCGCACCGACAC,-0.3814 ± 0.0024,-0.234 ± 0.29
ACATTTGTTGATACAACCATAAAATGATTTAATCACCCATAAATTGATTTAATTCACACCCATAAATTGATTAACGCTCTGATCATAGTCAGACCAACATTGCTACGACCCGTATTCGCACCGACAC,-1.13 ± 0.18,-0.00841 ± 0.34
ACATTTGTTGATACAACCATAAAATGATTTTTACACCCATAAATTGATAATTATCACACCCATAAATTGATATTGCCTCTGATCATAGTCAGACCAACATTGCTACGACCCGTATTCGCACCGACAC,-0.483 ± 0.081,0.183 ± 0.26
ACATTTGTTGATACAACCATAAAATGCGAATTACACCCATAAATTGATAATTATCACACCCATAAATTGATATTGCCTCTGATCATAGTCAGACCAACATTGCTACGACCCGTATTCGCACCGACAC,-0.945 ± 0.22,-0.35 ± 0.095
ACATTTGTTGATACAACCATAAAATGCGCCGGCACAAACGCCCGGTCGCCGGCGACACAAACGCCCGGTCGCGGTAAGAGGATCATAGTCAGACCAACATTGCTACGACCCGTATTCGCACCGACAC,-3.75 ± 0.078,-0.733 ± 0.15
ACATTTGTTGATACAACCATAAAATGCGCCGGCCACCCATAAATTGCGCCGGCTCACACCCATAAATTGCGCGGTACTCTGATCATAGTCAGACCAACATTGCTACGACCCGTATTCGCACCGACAC,-5.16 ± 0.24,-3.06 ± 0.22
ACATTTGTTGATACAACCATAAAATGCGCCTTACACCCATAAATTGATAATTATCACACCCATAAATTGATATTGCCTCTGATCATAGTCAGACCAACATTGCTACGACCCGTATTCGCACCGACAC,-1.4 ± 0.083,-1.01 ± 0.31
